Assay [1] concerns the target T1, canine PD-1, full-length, membrane-embedded.
T1 chain: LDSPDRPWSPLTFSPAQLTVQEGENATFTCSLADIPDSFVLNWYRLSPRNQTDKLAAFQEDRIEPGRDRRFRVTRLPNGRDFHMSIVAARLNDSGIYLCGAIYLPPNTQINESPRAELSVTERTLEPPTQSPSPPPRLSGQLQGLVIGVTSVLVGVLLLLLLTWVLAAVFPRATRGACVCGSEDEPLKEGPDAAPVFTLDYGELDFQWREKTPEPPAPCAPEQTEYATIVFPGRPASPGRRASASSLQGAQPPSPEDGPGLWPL
Put plainly: flow cytometry; apparent Kd of cell binding. Background: A flow cytometer gives signals particle by particle.

For assay [2], the target named is T2, canine PD-1 ECD-6His.
T2 chain: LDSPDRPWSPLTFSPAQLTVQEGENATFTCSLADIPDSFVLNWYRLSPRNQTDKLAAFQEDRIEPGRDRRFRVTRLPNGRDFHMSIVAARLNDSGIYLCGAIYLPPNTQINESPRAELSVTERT
Put plainly: SPR; monovalent binding. In general terms: In SPR one partner is held on a chip, and binding of the other changes the refractive index at the surface.

Assay [3] addresses T3, canine PD-1 ECD-mFc.
T3 chain: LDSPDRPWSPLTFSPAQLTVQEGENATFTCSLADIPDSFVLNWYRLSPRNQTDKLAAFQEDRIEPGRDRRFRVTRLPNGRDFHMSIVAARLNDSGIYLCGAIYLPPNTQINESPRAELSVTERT
Put plainly: SPR; avid.

Assay [4] has as its target PMX-147. Put plainly: flow cytometry; apparent Kd of cell binding.
The target of assay [5] is PMX-149. Put plainly: flow cytometry; apparent Kd of cell binding.
Assay [6] concerns the target PMX-150. Put plainly: flow cytometry; apparent Kd of cell binding.
Assay [7] addresses PMX-145. Put plainly: flow cytometry; apparent Kd of cell binding.

Kd data for six molecules are collected here from US20240254231A1 (published 2024).

B1: PMX126 (antibody, V domains shown)
VH: EVQLVESGGDLVKPAGSLRLSCLASGFTFSSYSMSWVRQAPEKGLQSVAGINSDGDRTYYTDAVKGRFTISRDNAKSTVYLQMNSLRAEDTAMYYCVRGFSSFNAFGYWGQGTLVTVSS
VL: DIVMTQTPLSLSVSPGETASISCKASQSLLHSDGNTYLSWFRQKPGQSPHRLIYAVSHRHPGVPDRFSGSGSGTDFTLRISRVEADDAGLYYCGQVIQDPWTFGAGTKVELK
As to B1, the Kd in assay [1] was 1.05 nM; in assay [2], 6.8 nM; in assay [3], 0.0297 nM.

B2: PMX125 (antibody, V domains shown)
VH: EVQLVESGGDLVKPGGSLRLSCVASGFSFSRYHMSWVRQAPGKGLQWVAYIISGGITTSYADAVKGRFTISRDNAKNTLFLQMNSLRAEDTAVYYCATYGSYFFDKWGQGTLVTVSS
VL: DIVMTQTPLSLSVSPGETASISCKASQSLLHSDGKSYLNWFRQKPGQSPQRLIYRVSNRDPGVPDRFSGSGSGTDFTLRISRVEADDTGLYYCGQVIQDPTFGAGTKVELK
On to B2, for which the Kd in assay [1] was 1.07 nM; in assay [2], 7.7 nM; in assay [3] it was 0.0348 nM.

B3: PMX127 (antibody, V domains shown)
VH: EVQLVESGGDLVKPGGSLRLSCVASGFSFSRYHMSWVRQAPGKGLQWVAYIVSGGISTSYADAVKGRFTISRDNAKNTLFLQMNSLRAEDTAVYYCATYGSYFFDTWGQGTLVTVSS
VL: DIVMTQTPLSLSVSPGETASIFCKASQSLLHSDGKSYLNWFRQKPGQSPQRLIYRVSNRDPGVPDRFSGSGSGTDFTLRISRVEADDTGLYYCGQVIQDPTFGAGTKVELK
With B3, the results for the Kd in assay [1], in assay [2] and in assay [3] were 0.86 nM, 2.2 nM and 0.0024 nM, respectively.

B4: PD-1 (receptor)
chain: LDSPDRPWSPLTFSPAQLTVQEGENATFTCSLADIPDSFVLNWYRLSPRNQTDKLAAFQEDRIEPGRDRRFRVTRLPNGRDFHMSIVAARLNDSGIYLCGAIYLPPNTQINESPRAELSVTERTLEPPTQSPSPPPRLSGQLQGLVIGVTSVLVGVLLLLLLTWVLAAVFPRATRGACVCGSEDEPLKEGPDAAPVFTLDYGELDFQWREKTPEPPAPCAPEQTEYATIVFPGRPASPGRRASASSLQGAQPPSPEDGPGLWPL
As to B4, the Kd in assay [4] was 2.65 nM; in assay [5], 8.23 nM; in assay [6] it was 6.83 nM; in assay [7] it was 5.75 nM.

B5: PMX152 (antibody, V domains shown)
VH: EVQLVESGGDLVKPGGSLRLSCVASGFTFSRYYMNWVRQAPGKGPQWVAYINNAGSDRNYVDAVKGRFTISRDNAKNTLYLQMNSLRAEDTAVYYCASEIRGVVVVGHLDYWGQGTLVTVSS
VL: SYVLTQLPSKSVTLNQPAHITCGGDNIGSKSVHWYQQKLGQAPVLIIYYDSIRPTGIPERFSGATSGNTATLTISGALAEDEADYYCQVWDSSAKAWVFGEGTQLTVL
Take B5: the Kd came out at 24.2 nM in assay [2] and 0.0318 nM in assay [3].

B6: PMX151 (antibody, V domains shown)
VH: EVQLVESGGDLVKSGGSLRLSCVASGFTFNTYSMNWVRQAPGKGLQWVARIKSSGSSTTYADAVKGRFTVSRDIAKNTLFLQMNSLRAEDTALYYCASEPGARYEIYFVESFFDYWGQGTLVTVSS
VL: SYVLTQLPSKSVTLKQPAHITCGGDNIGSKSVHWYQQKLGQAPVLIIYYDSSRPTGIPERFSGANSGNTATLTISGALAEDEADYYCQVWDSSAQAWIFGEGTQLTVL
As for B6, the Kd worked out at 2.97 nM in assay [1], 1.7 nM in assay [2] and 0.0322 nM in assay [3].
